Test system: MS2 coat protein
Assay: apparent KD of MS2 coat protein; designed switch direction (-1 OFF switch, 1 ON switch): -1; higher = weaker reporter binding
Outline: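 The buffer was Tris-HCl pH 7.5 with KCl, MgCl2, BSA, DTT, tRNA and Tween-20. In it, SNAP-549-labelled MS2 coat protein was titrated in doubling steps from 0.7 or 1.5 nM to 3 µM over chip-bound RNA switches transcribed by stalled E. coli RNA polymerase on Illumina chips. Apparent KD is the per-design median over clusters of curve fits to normalised fluorescence.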

[1] = input ligand: microRNA oligo, concentration not stated
[2] = Eterna round: R95, input ligand: FMN 200 uM
[3] = Eterna round: R95, input ligand: microRNA oligo, concentration not stated
[4] = Eterna round: R95, input ligand: none

| Sequence | apparent KD of MS2 coat protein (input ligand: FMN 200 uM) [nM] | apparent KD of MS2 coat protein (input ligand: none) [nM] | also measured |
| --- | --- | --- | --- |
| AAUAAUCGGGCCUUCCUAUUACAUGAGGAUCACCCAUGUCUCGAGGAUAUACCGACGCACGGUCCGUAGAAGGCGAGACCACAC [Esusbied] (Eterna round: R96, puzzle: Exclusion NG 3) | 141 | 24.7 | apparent KD of MS2 coat protein [1]: 14.5 nM |
| AACUUCUGAGGAUAUACAUAGAUUUACAUGAGGAUCACCCAUGUUCCUCUUUGUAUAAAUGUAGAAGGCAGAAGAA [Mat - Exclusion 5 - JL Mod - D72] (Eterna round: R97, puzzle: Exclusion 5) | 349 | 203 |  |
| CGAUGAGGUGUGAGGAUAUCGUGUUCGAAAGAACGUGAGAAGGCACAUGAGGAUCACCCAUGUUAACCUUGUCG [Omei Ex4B A13] (Eterna round: R97, puzzle: Brourd's mod of Exclusion 4) | 11.5 | 13.2 |  |
| AAACGUGCGAAGGAUAUCCAUCCACCCUGGAAAGGAGAAGGUCGCACAUGAGGAUCACCCAUGUGUGCCUAAAA [Zalave] (puzzle: Exclusion 6) |  |  | apparent KD of MS2 coat protein [2]: 26.6 nM; apparent KD of MS2 coat protein [3]: 11.4 nM; apparent KD of MS2 coat protein [4]: 11.8 nM |
| UAAGUGCUGCGAGGAUAUACAUGAGGAUCACCCAUGUGGAUGUCUGAGGCUUUGCCUCAGACGAUGUAGAAGGCGCAGUACAAU [Mat - Exclusion NG 2 - Mod of JL - D51] (Eterna round: R96, puzzle: Exclusion NG 2) | 77.3 | 20.6 | apparent KD of MS2 coat protein [1]: 11.1 nM |
| AAAAGUUAAGGAUAUACUUGAGGAUCACCCAAGUAGGUGGCUUCAGCCGGGAAACGGCGUAGAAGGUAGCAGAA [Atorin] (Eterna round: R97, puzzle: Exclusion 3) | 65.2 | 60.5 |  |
| GGGCUUAAAGGAUAUGCAAGGAGCCACAUGAGGAUCACCCAUGUACAACCUCAGUCCCUGGUAGAAGGUUACGCAA [whoooo] (Eterna round: R97, puzzle: Exclusion 5) | 35 | 30.6 |  |
| AGGUGCUUCUGGAGACAUGAGGAUCACCCAUGUUGAGUUAGCGAGGAUAUCGGUAAGGCAUGUGAUGAGAAGGCGCAAACCGAU [Ex NG3 #49] (Eterna round: R96, puzzle: Exclusion NG 3) | 50.6 | 49.5 | apparent KD of MS2 coat protein [1]: 35.5 nM |
| CAGUACGGAGGAUAUACAUGAGGAUCACCCAUGUGAGAGAUACUAGUGAGGUCGAUUAGUAGAAGGCUGUACUG [Mat X3R4 m6] (Eterna round: R97, puzzle: Exclusion 3) | 501 | 39.7 |  |
| UUAACCAGAGGAUAUGCGAAUAAAUAAAACUUUUUUUUUUAACAUGAGGAUCACCCAUGUAGAAGGCUGCAAUU [Ex2 #31] (Eterna round: R97, puzzle: Exclusion 2) | 32 | 46.8 |  |
| GGCCCGGGAGGAUAUACAUGAGGAUCACCCAUGUUGAAGUUGAAGAUCUUCGGCUUCGGUAGAAGGCCCGGGCC [-35, -32.8 kcal, 23% A, 3, 0] (Eterna round: R97, puzzle: Exclusion 3) | 18.2 | 13.6 |  |
| UAAUUAAUUAAUAAAUAAUACAUGAGGAUCACCCAUGUAGAUCCUACAUACAAUUUAAGUAGCUCGUCUUAUUAUUA [Sensor-V1 #61] (Eterna round: R97, puzzle: Sensor, turn-off variant 1) | 200 | 255 |  |
| CCUCUACAUGAGGAUCACCCAUGUGAGGAUAUCUCGGAGCAGCCACUUAAGGCACUCCAGAGAAGGCACGUGUA [Oreresbe] (puzzle: Exclusion 1) |  |  | apparent KD of MS2 coat protein [3]: 16.6 nM |
| UAUAAAACAUAGGAUAUCGAAAUUAUCAUUUAACGAGAAGGAUGAACAUGAGGAUCACCCAUGUGGUAUCAUGG [Mat - Exclusion 6 - JL Mod - D10] (Eterna round: R96, puzzle: Exclusion 6) |  |  | apparent KD of MS2 coat protein [1]: 328 nM |
| GGUUGGCGAGGAUAUACAUGAGGAUCACCCAUGUGGUCCUAAGGCUGAUCAAGCCUAUGUAGAAGGCGCAAAUC [salish99_ex3_r4_010] (Eterna round: R97, puzzle: Exclusion 3) | 37.7 | 223 |  |
| CGUCUGUAAGGAUAUGGUUACAUAGACAUGAGGAUCACCCAUGUGACGUGGGACUAGUGAUUAGAAGGUACGAACG [EX5 #66] (Eterna round: R97, puzzle: Exclusion 5) | 77 | 78.6 |  |
| AAUCCUGAAGUUAGGAUAUGAAGUAUCACUGCACUUCAGAAGGGACUUGAGGAUCACCCAAGUAGCCGUGAGGG [salish99_bmod_ex4_r4_001] (Eterna round: R97, puzzle: Brourd's mod of Exclusion 4) | 161 | 47.5 |  |

| Sequence | apparent KD of MS2 coat protein (input ligand: FMN 200 uM) [nM] | apparent KD of MS2 coat protein (input ligand: none) [nM] | also measured |
| --- | --- | --- | --- |
| AGUAGGUCUACCUUGGUGGAUCUGCAUAAUGCAAGUGUUACAUGAGGAUCACCCAUGUCCUCAUUUGCUCGUCUUAU [JL turnoff v2 99.22] (puzzle: Sensor v3, turn-off variant 2) |  |  | apparent KD of MS2 coat protein [2]: 39.4 nM; apparent KD of MS2 coat protein [3]: 105 nM; apparent KD of MS2 coat protein [4]: 43.5 nM |
| AUCCUUAACAAGGAUAUCGGGCGGGAAAUUGUUUGAGAAGGUGUAACAUGAGGAUCACCCAUGUAAAAUAUGAA [-14.9, -13.5 kcal, A 36%] (Eterna round: R97, puzzle: Exclusion 6) | 21.7 | 31.2 |  |
| GAUCAUGCAGGAUAUGCAGUAACCAUGAAAACAUGGUUGCAACAUGAGGAUCACCCAUGUAGAAGGGCAUGAUC [Omei Ex2 A3] (Eterna round: R97, puzzle: Exclusion 2) | 10.8 | 13.9 |  |
| UUAAUGGUUGUGAGGAUAUCGGAUAGAUAGAUAUUCGAGAAGGCACAUGAGGAUCACCCAUGUGUGAUCAGAAA [Brourd's EX4 #61] (Eterna round: R97, puzzle: Brourd's mod of Exclusion 4) | 410 | 202 |  |
| UAUUAGCAAGCGAGAUCCCACAUGAGGAUCACCCAUGUGCUCGUCUUAUAAAAGACUGUGACAAAAGUCACGGUCAC [Sensor 3, v1 - 91 v5] (Eterna round: R97, puzzle: Sensor, turn-off variant 1) | 15.9 | 15.1 |  |
| AUUGAUAGCACAGGAUAUUGAGAUUUGAAUUGACAAGAAGGGUGUACAUGAGGAUCACCCAUGUAAUGGGAGAGUGGUUGAUUA [JR_ExcNG1_Sub002] (Eterna round: R96, puzzle: Exclusion NG 1) | 365 | 582 | apparent KD of MS2 coat protein [1]: 324 nM |
| AAUUAUUUUUGAGGAUAUCGUGGUGAAACACCACGAGAAGGCGAGAUAAACAUGAGGAUCACCCAUGUGAGCCUGAUGCUUAUG [Ex NG1 #50] (Eterna round: R96, puzzle: Exclusion NG 1) |  |  | apparent KD of MS2 coat protein [1]: 18.1 nM |
| GGUUGGCGAGGAUAUACAUGAGGAUCACCCAUGUGAUCCUAAGGCUGAUCAAGCCUAUGUAGAAGGCGCAAAUC [salish99_ex3_r4_009] (Eterna round: R97, puzzle: Exclusion 3) | 49.7 | 260 |  |
| AAUAACAGGCCGAUCCUAAACAUGAGGAUCACCCAUGUGCGCGUCUUGUAAAGUACUAUCACGAAAGUGAUAGUACA [Sensor v3, turn-off variant 1 (MOD of Eli's v1-59 v.3)] (puzzle: Sensor v3, turn-off variant 1) |  |  | apparent KD of MS2 coat protein [2]: 41.8 nM; apparent KD of MS2 coat protein [3]: 37.1 nM; apparent KD of MS2 coat protein [4]: 43.7 nM |
| AGCAGACGAGGAUAUAAAUUUGAUAACAUGAGGAUCACCCAUGUGAUCGAUAGAUCAAAUUUAGAAGGUGUCUGCU [E5/7-B1] (Eterna round: R97, puzzle: Exclusion 5) | 512 | 490 |  |
| GGUGCGUUUGUGAGGAUAUGCUGGUCCUUGGUUCGGCAGAAGGCACAUGAGGAUCACCCAUGUGGUGUCGCACC [salish99_Bmod_Ex4_049] (puzzle: Brourd's mod of Exclusion 4) |  |  | apparent KD of MS2 coat protein [3]: 65.9 nM |
| GAGUUAGCGUGUGGAAUAUACAUGAGGAUCACCCAUGUUAGCUUAUAUAUUGCUCGUCUUAUAACAACACUUAACUG [Mod JX-Electric-eye4] (Eterna round: R97, puzzle: Sensor, turn-off variant 1) | 42.7 | 45.8 |  |
| GUGCGACAUGAGGAUCACCCAUGUCAGGAUAUAUAGAACGAUAACGAAAUCGUUAUCGGUAGAAGGGACGGUGA [Eternabot (L1) Solution 48] (Eterna round: R97, puzzle: Exclusion 1) | 18.6 | 21.4 |  |
| UAAUAAAGUGUGAGGAUAUGCUGGUCCUUAGAUCAGCAGAAGGCACAUGAGGAUCACCCAUGUAAUAUAUAAAU [Mat - Exclusion 4 - JL Mod - D56] (Eterna round: R96, puzzle: Brourd's mod of Exclusion 4) |  |  | apparent KD of MS2 coat protein [1]: 29 nM |
| GCCUUAUCCGUCAGGAUAUACAGCCGCUCGUUGUUGUAGAAGGGACAUGAGGAUCACCCAUGUACGUACCAUUG [alecazam4] (Eterna round: R97, puzzle: Brourd's mod of Exclusion 4) | 27.2 | 22.7 |  |
| AUACCACGAGGAUAUCGUCUAUUUCACAUGAGGAUCACCCAUGUUAUCCUUGUUUCGUUUCGAGAAGGCGUGUUUU [JR_E5_Sub076] (puzzle: Exclusion 5) |  |  | apparent KD of MS2 coat protein [3]: 43.8 nM |
| UACACUGCAUGAGGAUCAAACAUGAGGAUCACCCAUGUAUAACAAGCUUUUUGCACGUCUUAUAAUUAUGUAGUGUA [Electric Eye 14 - Jieux - Sensor, turn-off variant 1] (Eterna round: R97, puzzle: Sensor, turn-off variant 1) | 15.3 | 16.2 |  |

— the supplement of paper PMC9170038
